Measured values as given in PMC7423924, “A fluorogenic cyclic peptide for imaging and quantification of drug-induced apoptosis” (Nature Communications, 2020).
Where “and” joins values, the source holds several entries; their conditions need not be identical. Equal values may be shown once.

Tested on: neutrophils (myeloid)
Assay: Flow cytometry staining before and after induction of apoptosis, neutrophils
Type: cell-based, human
Settings: single replicates, listed as Ann V
Description: Fig. 2 Apo-15 binds to apoptotic cells of different origin in multiple environments. a Representative fluorescence confocal microscopy images (from three independent experiments) human apoptotic (yellow arrows) and viable (white arrows) cells from different lineages: BL-2 (lymphoid), neutrophils (myeloid), and primary airway epithelial cells (epithelial). Cells were incubated with Apo-15 (100 nM, green), AF647-Annexin V (5 nM, red), and Hoechst 33342 (7 μM, blue) for 10 min and imaged under a fluorescence confocal microscope (λexc.: 405, 488, 633 nm: λem.: 450, 525, 670 nm). Scale bars: 10 µm. b Divalent cation-independent binding of Apo-15 to apoptotic cells of different origin (top plots: lymphoid cells, bottom plots: myeloid cells). Mixtures of apoptotic (highlighted in green dots) and viable cells (highlighted in black dots) were stained with AF647-Annexin V (25 nM) and Apo-15 (100 nM) in the presence of 2 mM CaCl2 (left) or 2.5 mM EDTA (right). Representative histograms showing Apo-15 binding (x-axis) vs AF647-Annexin V binding (y-axis) acquired on 5L LSR flow cytometer (n = 5). c Cells were sorted on their Apo-15 positivity (green populations in panel b) or negativity (black populations in panel b). Gating strategy in Supplementary Fig. 7. Morphological analysis (four independent images from two independent experiments) of cytocentrifuge preparations of Apo-15-positive and Apo-15-negative cells under brightfield microscopy (scale bar: 10 µm). d Quantification of fluorescence staining of neutrophils (myeloid, n ≥ 5), BL-2 cells (lymphoid, n ≥ 3) and primary airway epithelial cells (epithelial, n = 5) before and after induction of apoptosis and upon treatment with Apo-15 and AF647-Annexin V. Data acquired on 5 L LSR flow cytometer and presented as mean values ± SEM. P values obtained from two-tailed t tests. Source data (in d) are provided as a Source data file. […]
Work with human peripheral blood leukocytes complied with all relevant ethical regulations and informed consent was obtained. […]

B1: Annexin V: fluorescently-labeled (AF647) annexin V, PS-binding protein (protein, UniProt P08758 2-320, looked up)
Annexin A5: AQVLRGTVTDFPGFDERADAETLRKAMKGLGTDEESILTLLTSRSNAQRQEISAAFKTLFGRDLLDDLKSELTGKFEKLIVALMKPSRLYDAYELKHALKGAGTNEKVLTEIIASRTPEELRAIKQVYEEEYGSSLEDDVVGDTSGYYQRMLVVLLQANRDPDAGIDEAQVEQDAQALFQAGELKWGTDEEKFITIFGTRSVSHLRKVFDKYMTISGFQIEETIDRETSGNLEQLLLAVVKSIRSIPAYLAETLYYAMKGAGTDDHTLIRVMVSRSEIDLFNIRKEFRKNFATSLYSMIKGDTSGDYKKALLLLCGEDD
modifications: AF647 label
Stained cells (flow cytometry) (neutrophils 0 h, before induction of apoptosis): 2.6% and 3.7% and 2.0% and 1.4% and 1.1% | Stained cells (flow cytometry) (neutrophils 18 h, EDTA (2.5 mM)): 0.0% and 0.5% | Stained cells (flow cytometry) (neutrophils after 18 h culture at 37 °C): 51.9% and 32% and 59.2% and 56.9% and 54.7% and 56.2% and 68% and 42.1% and 61.5% and 44.8% and 31.8% and 64.6% and 60.9% and 43.7% and 65.3% and 57.6% and 48% and 40.7% and 35.2% and 65.8% and 72.2% and 52.7% and 70.5% and 46.6%
